{"source": "paper PMC4737144", "key": {"[1]": {"system": "Strep-RapZ (Escherichia coli)", "assay": "EMSA"}, "Hfq (Escherichia coli)": {"system": "Hfq (Escherichia coli)", "assay": "EMSA"}}}
{"substance": "GlmY", "values": [{"measurement": "Kd", "setting": "[1]", "result": 0.03, "unit": "µM"}, {"measurement": "binding signal (fold higher Hfq needed than for GlmZ)", "setting": "Hfq (Escherichia coli)", "result": 10}]}
